According to paper doi:10.1101/2021.05.19.444834v1 (bioRxiv, 2021):

What was measured:
ThfB and ThfM = test: In vitro reconstitution with ThfB and ThfM together; format: biochemical, Thermobifida fusca; settings: 10 μM ThfA, 1 μM ThfB, 1 μM ThfM, 0.4 mM SAM, ATP, no KCl, 37 °C; 5 h; LC-MS
O-methyltransferase ThfM = test: In vitro aspartimide formation by ThfM alone; format: biochemical, Thermobifida fusca; settings: 10 μM substrate, 1 μM ThfM, 0.4 mM SAM, 100 mM sodium phosphate, 37 °C; LC-MS

modification by ThfM alone (O-methyltransferase ThfM): no reaction
Substance: ThfA
conversion to triply dehydrated product (ThfB and ThfM): ~ 75%
